Results reported in patent US6794147 (Pfizer, dated 2004).

Target: T1, mouse MLH1 (endogenous, mouse testicular lysates) (mouse, UniProt Q9JK91 1-760)
T1 construct: Endogenous protein immunoprecipitated from mouse testicular lysates
T1 sequence (looked up): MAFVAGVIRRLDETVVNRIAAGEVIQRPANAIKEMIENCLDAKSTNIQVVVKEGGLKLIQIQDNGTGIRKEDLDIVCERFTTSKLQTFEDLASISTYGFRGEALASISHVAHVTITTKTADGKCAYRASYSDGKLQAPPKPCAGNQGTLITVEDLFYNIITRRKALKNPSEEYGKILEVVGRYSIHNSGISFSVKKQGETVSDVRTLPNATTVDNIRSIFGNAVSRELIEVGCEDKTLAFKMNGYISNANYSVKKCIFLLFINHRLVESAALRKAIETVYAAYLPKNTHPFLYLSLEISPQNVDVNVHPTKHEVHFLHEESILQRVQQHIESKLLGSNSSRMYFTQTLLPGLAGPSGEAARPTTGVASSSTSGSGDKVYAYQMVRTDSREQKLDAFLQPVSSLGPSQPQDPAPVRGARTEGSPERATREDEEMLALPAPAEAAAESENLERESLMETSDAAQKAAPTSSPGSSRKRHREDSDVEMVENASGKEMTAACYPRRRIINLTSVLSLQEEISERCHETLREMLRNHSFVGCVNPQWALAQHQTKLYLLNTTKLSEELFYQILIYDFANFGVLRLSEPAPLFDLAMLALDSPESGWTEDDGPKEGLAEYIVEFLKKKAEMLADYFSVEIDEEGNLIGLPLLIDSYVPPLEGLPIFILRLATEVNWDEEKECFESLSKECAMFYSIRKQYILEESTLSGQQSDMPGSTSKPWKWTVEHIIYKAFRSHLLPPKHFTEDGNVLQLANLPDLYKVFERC
Assay: co-immunoprecipitation from mouse testicular lysates with anti-RAD51 antibody, Western blotting

binding result: no binding
B1: mouse RAD51 (endogenous, mouse testicular lysates) (other, UniProt Q08297 2-339, looked up)
chain: AMQMQLEASADTSVEEESFGPQPISRLEQCGINANDVKKLEEAGYHTVEAVAYAPKKELINIKGISEAKADKILTEAAKLVPMGFTTATEFHQRRSEIIQITTGSKELDKLLQGGIETGSITEMFGEFRTGKTQICHTLAVTCQLPIDRGGGEGKAMYIDTEGTFRPERLLAVAERYGLSGSDVLDNVAYARGFNTDHQTQLLYQASAMMVESRYALLIVDSATALYRTDYSGRGELSARQMHLARFLRMLLRLADEFGVAVVITNQVVAQVDGAAMFAADPKKPIGGNIIAHASTTRLYLRKGRGETRICKIYDSPCLPEAEAMFAINADGVGDAKD
notes: Endogenous protein immunoprecipitated from mouse testicular lysates
